± gives the uncertainty stated by the source.
B1: Homeobox protein SIX3, residues 212 to 262; numbered along this chain, O95343 (parent)
chain: CFKERTRSLLREWYLQDPYPNPSKKRELAQATGLTPTQVGNWFKNRRQRDR

Variants of: B1
Test: abundance fitness (aPCA) (normalised: wild type 0, dead -1); higher = more abundant; growth selection in yeast, the domain comes from the species named
Settings: Homo sapiens

Row | Variant | abundance fitness
1 | CFKERTRSLLREWYLQDPYPNKSKKRELAQATGLTPTQVGNWFKNRRQRDR [P22K] | -0.445 ± 0.078
2 | CFKERTRSLLREWYLQDPYPNHSKKRELAQATGLTPTQVGNWFKNRRQRDR [P22H] | -0.717 ± 0.42
3 | CFKERTRSLLREWYLQDPYPNISKKRELAQATGLTPTQVGNWFKNRRQRDR [P22I] | -0.014 ± 0.05
4 | CFKERTRSLLREWYLQDPYPNASKKRELAQATGLTPTQVGNWFKNRRQRDR [P22A] | -0.108 ± 0.061
5 | CFKERTRSLLREWYLQDPYPNDSKKRELAQATGLTPTQVGNWFKNRRQRDR [P22D] | -0.195 ± 0.12
6 | CFKERTRSLLREWYLQDPYPNYSKKRELAQATGLTPTQVGNWFKNRRQRDR [P22Y] | -0.102 ± 0.12
7 | CFKERTRSLLREWYLQDPYPNQSKKRELAQATGLTPTQVGNWFKNRRQRDR [P22Q] | -0.212 ± 0.094
8 | CFKERTRSLLREWYLQDPYPNCSKKRELAQATGLTPTQVGNWFKNRRQRDR [P22C] | -0.359 ± 0.21
9 | CFKERTRSLLREWYLQDPYPNRSKKRELAQATGLTPTQVGNWFKNRRQRDR [P22R] | -0.362 ± 0.06
10 | CFKERTRSLLREWYLQDPYPNESKKRELAQATGLTPTQVGNWFKNRRQRDR [P22E] | 0.055 ± 0.048
11 | CFKERTRSLLREWYLQDPYPNVSKKRELAQATGLTPTQVGNWFKNRRQRDR [P22V] | 0.03 ± 0.058
12 | CFKERTRSLLREWYLQDPYPNNSKKRELAQATGLTPTQVGNWFKNRRQRDR [P22N] | -0.232 ± 0.084
13 | CFKERTRSLLREWYLQDPYPNLSKKRELAQATGLTPTQVGNWFKNRRQRDR [P22L] | 0.156 ± 0.038
14 | CFKERTRSLLREWYLQDPYPNMSKKRELAQATGLTPTQVGNWFKNRRQRDR [P22M] | -0.266 ± 0.11
15 | CFKERTRSLLREWYLQDPYPNWSKKRELAQATGLTPTQVGNWFKNRRQRDR [P22W] | 0.125 ± 0.087
16 | CFKERTRSLLREWYLQDPYPNSSKKRELAQATGLTPTQVGNWFKNRRQRDR [P22S] | -0.107 ± 0.05
17 | CFKERTRSLLREWYLQDPYPYPSKKRELAQATGLTPTQVGNWFKNRRQRDR [N21Y] | -0.873 ± 0.1
18 | CFKERTRSLLREWYLQDPYPNPSKKWELAQATGLTPTQVGNWFKNRRQRDR [R26W] | -0.266 ± 0.066
19 | CFKERTRSLLREWYLQDPYPNPSKKDELAQATGLTPTQVGNWFKNRRQRDR [R26D] | -0.667 ± 0.32
20 | CFKERTRSLLREWYLQDPYPNPSKKCELAQATGLTPTQVGNWFKNRRQRDR [R26C] | -0.044 ± 0.052
21 | CFKERTRSLLREWYLQDPYPNPSKKKELAQATGLTPTQVGNWFKNRRQRDR [R26K] | -0.01 ± 0.085
22 | CFKERTRSLLREWYLQDPYPNPSKKTELAQATGLTPTQVGNWFKNRRQRDR [R26T] | -0.091 ± 0.092
23 | CFKERTRSLLREWYLQDPYPNPSKKPELAQATGLTPTQVGNWFKNRRQRDR [R26P] | -0.889 ± 0.1
24 | CFKERTRSLLREWYLQDPYPNPSKKSELAQATGLTPTQVGNWFKNRRQRDR [R26S] | -0.045 ± 0.042
25 | CFKERTRSLLREWYLQDPYPNPSKKEELAQATGLTPTQVGNWFKNRRQRDR [R26E] | -0.002 ± 0.058
26 | CFKERTRSLLREWYLQDPYPNPSKKVELAQATGLTPTQVGNWFKNRRQRDR [R26V] | 0.047 ± 0.049

Row | Variant | abundance fitness
27 | CFKERTRSLLREWYLQDPYPNPSKKAELAQATGLTPTQVGNWFKNRRQRDR [R26A] | 0.181 ± 0.056
28 | CFKERTRSLLREWYLQDPYPNPSKKYELAQATGLTPTQVGNWFKNRRQRDR [R26Y] | -0.286 ± 0.13
29 | CFKERTRSLLREWYLQDPYPNPSKKFELAQATGLTPTQVGNWFKNRRQRDR [R26F] | -0.228 ± 0.065
30 | CFKERTRSLLREWYLQDPYPNPSKKMELAQATGLTPTQVGNWFKNRRQRDR [R26M] | -0.14 ± 0.11
31 | CFKERTRSLLREWYLQDPYPNPSKKLELAQATGLTPTQVGNWFKNRRQRDR [R26L] | 0.158 ± 0.064
32 | CFKERTRSLLREWYLQDPYPNPSKKGELAQATGLTPTQVGNWFKNRRQRDR [R26G] | -0.209 ± 0.067
33 | CFKERTRSLLREWYLQDPYPNPSKKHELAQATGLTPTQVGNWFKNRRQRDR [R26H] | 0.047 ± 0.084
34 | CFKERTRSLLREWYLQDPYPNPSKKQELAQATGLTPTQVGNWFKNRRQRDR [R26Q] | 0.091 ± 0.09
35 | CFKERTRSLLREWYLQDPYPNPSKKNELAQATGLTPTQVGNWFKNRRQRDR [R26N] | 0.385 ± 0.1
36 | CFKERTRSLLREWYLQDPYPNPSKKRDLAQATGLTPTQVGNWFKNRRQRDR [E27D] | -0.253 ± 0.16
37 | CFKERTRSLLREWYLQDPYPNPSKKRPLAQATGLTPTQVGNWFKNRRQRDR [E27P] | -0.785 ± 0.18
38 | CFKERTRSLLREWYLQDPYPNPSKKRILAQATGLTPTQVGNWFKNRRQRDR [E27I] | -0.486 ± 0.22
39 | CFKERTRSLLREWYLQDPYPNPSKKRSLAQATGLTPTQVGNWFKNRRQRDR [E27S] | -0.322 ± 0.079
40 | CFKERTRSLLREWYLQDPYPNPSKKRRLAQATGLTPTQVGNWFKNRRQRDR [E27R] | -0.573 ± 0.078
41 | CFKERTRSLLREWYLQDPYPNPSKKRCLAQATGLTPTQVGNWFKNRRQRDR [E27C] | -0.819 ± 0.2
42 | CFKERTRSLLREWYLQDPYPNPSKKRNLAQATGLTPTQVGNWFKNRRQRDR [E27N] | -0.947 ± 0.39
43 | CFKERTRSLLREWYLQDPYPNPSKKRMLAQATGLTPTQVGNWFKNRRQRDR [E27M] | -0.373 ± 0.07
44 | CFKERTRSLLREWYLQDPYPNPSKKRHLAQATGLTPTQVGNWFKNRRQRDR [E27H] | -0.446 ± 0.3
45 | CFKERTRSLLREWYLQDPYPNPSKKRFLAQATGLTPTQVGNWFKNRRQRDR [E27F] | -0.276 ± 0.049
46 | CFKERTRSLLREWYLQDPYPNPSKKRKLAQATGLTPTQVGNWFKNRRQRDR [E27K] | 0.121 ± 0.1
47 | CFKERTRSLLREWYLQDPYPNPSKKRVLAQATGLTPTQVGNWFKNRRQRDR [E27V] | -0.593 ± 0.095
48 | CFKERTRSLLREWYLQDPYPNPSKKRALAQATGLTPTQVGNWFKNRRQRDR [E27A] | -0.55 ± 0.09
49 | CFKERTRSLLREWYLQDPYPNPSKKRQLAQATGLTPTQVGNWFKNRRQRDR [E27Q] | -0.357 ± 0.16
50 | CFKERTRSLLREWYLQDPYPNPSKKRTLAQATGLTPTQVGNWFKNRRQRDR [E27T] | -0.668 ± 0.2
51 | CFKERTRSLLREWYLQDPYPNPSKKRLLAQATGLTPTQVGNWFKNRRQRDR [E27L] | -0.515 ± 0.079

Source: the Human Domainome abundance scans (Beltran et al. 2025)
